From patent publication US20150377889

Columns and labels:
[1] = test system: recombinant wild type full-length human galectin-3, His-tagged (unphosphorylated)
[2] = test system: recombinant wild type galectin-3 phosphorylated in vitro by c-Abl (galectin-3 Tyr(P)-107), His-tagged
[3] = test system: galectin-3 secreted by PC3M cells after EGF (and PDGF) treatment, tyrosine phosphorylated (galectin-3 Tyr(P)-107)
Sequence of galectin-3 secreted by PC3M cells after EGF (and PDGF) treatment, tyrosine phosphorylated (galectin-3 Tyr(P)-107) (chain, as listed by the source): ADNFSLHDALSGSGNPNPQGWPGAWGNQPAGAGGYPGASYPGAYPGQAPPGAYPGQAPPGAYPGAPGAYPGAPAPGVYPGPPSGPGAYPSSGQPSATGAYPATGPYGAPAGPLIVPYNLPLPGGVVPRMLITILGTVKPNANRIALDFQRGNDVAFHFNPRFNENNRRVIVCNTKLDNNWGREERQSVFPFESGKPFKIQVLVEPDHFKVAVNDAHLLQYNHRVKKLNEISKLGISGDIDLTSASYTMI

Sequence of recombinant wild type galectin-3 phosphorylated in vitro by c-Abl (galectin-3 Tyr(P)-107), His-tagged (chain, as listed by the source): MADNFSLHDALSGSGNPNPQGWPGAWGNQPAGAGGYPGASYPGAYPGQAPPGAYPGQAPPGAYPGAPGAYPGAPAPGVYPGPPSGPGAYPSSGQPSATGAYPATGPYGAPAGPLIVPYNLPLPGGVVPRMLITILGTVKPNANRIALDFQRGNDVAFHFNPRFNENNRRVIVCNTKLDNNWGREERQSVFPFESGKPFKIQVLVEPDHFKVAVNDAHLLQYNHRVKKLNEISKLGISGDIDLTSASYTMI

With active prostate specific antigen (PSA) the “cleavage of galectin-3 by PSA (2 h at room temperature, Western blot with anti-galectin-3 antibody)” value [1] was “FIG. 1A demonstrated that phosphorylation of Tyr-107 blocks the cleavage of galectin-3 by PSA” and the “cleavage of galectin-3 by PSA (2 h at room temperature, Western blot with anti-galectin-3 and anti-Tyr(P) antibodies)” value [2] was “phosphorylation of Tyr-107 blocks the cleavage of galectin-3 by PSA”.

With endogenous PSA secreted by LNCaP cells the “cleavage of secreted galectin-3 in conditioned medium of LNCaP/PC3M co-culture with and without EGF (Western blot with HL31)” value [3] was “phosphorylation blocks cleavage of galectin-3 in conditioned medium”.

In the case of phosphatase and tensin homolog (PTEN), the “dephosphorylation of galectin-3 Tyr(P)-107 (PTEN for 2 hr at 30 C, pTyr and Gal-3 blots)” value [2] is reported as “This was then proven by phosphorylating galectin-3 in vitro with active c-Abl and then treating it with PTEN”.
